The values below come from patent US20080020978A1 (Amgen, published 2008).

Sequences and labels used below:
B1: SEQ ID NO 34 (peptide)
peptide: Ac-WVTHRLAGLLSASGGVVRCNFVPTDVGPFAF-NH2
modifications: not fully specified (residue 19); printed as Ac-WVTHRLAGLLSASGGVVRCNFVPTDVGPFAF-NH2
B2: SEQ ID NO 673 (peptide)
peptide: Ac-WVTH[Cit]LAGLLS[Cit]SGGVV[hArg]KNFVPTDVG[Tpi]FAF-NH2
SMILES: CC(=O)N[C@@H](Cc1c[nH]c2ccccc12)C(=O)N[C@H](C(=O)N[C@H](C(=O)N[C@@H](Cc1c[nH]cn1)C(=O)N[C@@H](CCCNC(N)=O)C(=O)N[C@@H](CC(C)C)C(=O)N[C@@H](C)C(=O)NCC(=O)N[C@@H](CC(C)C)C(=O)N[C@@H](CC(C)C)C(=O)N[C@@H](CO)C(=O)N[C@@H](CCCNC(N)=O)C(=O)N[C@@H](CO)C(=O)NCC(=O)NCC(=O)N[C@H](C(=O)N[C@H](C(=O)N[C@@H](CCCCNC(=N)N)C(=O)N[C@@H](CCCCN)C(=O)N[C@@H](CC(N)=O)C(=O)N[C@@H](Cc1ccccc1)C(=O)N[C@H](C(=O)N1CCC[C@H]1C(=O)N[C@H](C(=O)N[C@@H](CC(=O)O)C(=O)N[C@H](C(=O)NCC(=O)N1Cc2[nH]c3ccccc3c2C[C@H]1C(=O)N[C@@H](Cc1ccccc1)C(=O)N[C@@H](C)C(=O)N[C@@H](Cc1ccccc1)C(N)=O)C(C)C)[C@@H](C)O)C(C)C)C(C)C)C(C)C)[C@@H](C)O)C(C)C
B3: SEQ ID NO 665 (peptide)
peptide: Ac-WVTH[Cit]LAGLLS[Cit]SGGVV[Cit]KNFVPTDVG[Oic]KAF-NH2
SMILES: CC(=O)N[C@@H](Cc1c[nH]c2ccccc12)C(=O)N[C@H](C(=O)N[C@H](C(=O)N[C@@H](Cc1c[nH]cn1)C(=O)N[C@@H](CCCNC(N)=O)C(=O)N[C@@H](CC(C)C)C(=O)N[C@@H](C)C(=O)NCC(=O)N[C@@H](CC(C)C)C(=O)N[C@@H](CC(C)C)C(=O)N[C@@H](CO)C(=O)N[C@@H](CCCNC(N)=O)C(=O)N[C@@H](CO)C(=O)NCC(=O)NCC(=O)N[C@H](C(=O)N[C@H](C(=O)N[C@@H](CCCNC(N)=O)C(=O)N[C@@H](CCCCN)C(=O)N[C@@H](CC(N)=O)C(=O)N[C@@H](Cc1ccccc1)C(=O)N[C@H](C(=O)N1CCC[C@H]1C(=O)N[C@H](C(=O)N[C@@H](CC(=O)O)C(=O)N[C@H](C(=O)NCC(=O)N1[C@H](C(=O)N[C@@H](CCCCN)C(=O)N[C@@H](C)C(=O)N[C@@H](Cc2ccccc2)C(N)=O)C[C@@H]2CCCC[C@@H]21)C(C)C)[C@@H](C)O)C(C)C)C(C)C)C(C)C)[C@@H](C)O)C(C)C
B4: SEQ ID NO 662 (peptide)
peptide: Ac-LAGLLS[Cit]SGGVV[hArg]KNFVPTDVG[Oic]FAF-NH2
SMILES: CC(=O)N[C@@H](CC(C)C)C(=O)N[C@@H](C)C(=O)NCC(=O)N[C@@H](CC(C)C)C(=O)N[C@@H](CC(C)C)C(=O)N[C@@H](CO)C(=O)N[C@@H](CCCNC(N)=O)C(=O)N[C@@H](CO)C(=O)NCC(=O)NCC(=O)N[C@H](C(=O)N[C@H](C(=O)N[C@@H](CCCCNC(=N)N)C(=O)N[C@@H](CCCCN)C(=O)N[C@@H](CC(N)=O)C(=O)N[C@@H](Cc1ccccc1)C(=O)N[C@H](C(=O)N1CCC[C@H]1C(=O)N[C@H](C(=O)N[C@@H](CC(=O)O)C(=O)N[C@H](C(=O)NCC(=O)N1[C@H](C(=O)N[C@@H](Cc2ccccc2)C(=O)N[C@@H](C)C(=O)N[C@@H](Cc2ccccc2)C(N)=O)C[C@@H]2CCCC[C@@H]21)C(C)C)[C@@H](C)O)C(C)C)C(C)C)C(C)C
B5: SEQ ID NO 660 (peptide)
peptide: Ac-VTH[Cit]LAGLLS[Cit]SGGVV[hArg]KNFVPTDVG[Oic]FAF-NH2
SMILES: CC(=O)N[C@H](C(=O)N[C@H](C(=O)N[C@@H](Cc1c[nH]cn1)C(=O)N[C@@H](CCCNC(N)=O)C(=O)N[C@@H](CC(C)C)C(=O)N[C@@H](C)C(=O)NCC(=O)N[C@@H](CC(C)C)C(=O)N[C@@H](CC(C)C)C(=O)N[C@@H](CO)C(=O)N[C@@H](CCCNC(N)=O)C(=O)N[C@@H](CO)C(=O)NCC(=O)NCC(=O)N[C@H](C(=O)N[C@H](C(=O)N[C@@H](CCCCNC(=N)N)C(=O)N[C@@H](CCCCN)C(=O)N[C@@H](CC(N)=O)C(=O)N[C@@H](Cc1ccccc1)C(=O)N[C@H](C(=O)N1CCC[C@H]1C(=O)N[C@H](C(=O)N[C@@H](CC(=O)O)C(=O)N[C@H](C(=O)NCC(=O)N1[C@H](C(=O)N[C@@H](Cc2ccccc2)C(=O)N[C@@H](C)C(=O)N[C@@H](Cc2ccccc2)C(N)=O)C[C@@H]2CCCC[C@@H]21)C(C)C)[C@@H](C)O)C(C)C)C(C)C)C(C)C)[C@@H](C)O)C(C)C
B6: SEQ ID NO 676 (peptide)
peptide: Ac-WVTH[Cit]LAGLLS[Cit]SGGVV[hArg]KNFVPTDVGP[Tpi]AF-NH2
SMILES: CC(=O)N[C@@H](Cc1c[nH]c2ccccc12)C(=O)N[C@H](C(=O)N[C@H](C(=O)N[C@@H](Cc1c[nH]cn1)C(=O)N[C@@H](CCCNC(N)=O)C(=O)N[C@@H](CC(C)C)C(=O)N[C@@H](C)C(=O)NCC(=O)N[C@@H](CC(C)C)C(=O)N[C@@H](CC(C)C)C(=O)N[C@@H](CO)C(=O)N[C@@H](CCCNC(N)=O)C(=O)N[C@@H](CO)C(=O)NCC(=O)NCC(=O)N[C@H](C(=O)N[C@H](C(=O)N[C@@H](CCCCNC(=N)N)C(=O)N[C@@H](CCCCN)C(=O)N[C@@H](CC(N)=O)C(=O)N[C@@H](Cc1ccccc1)C(=O)N[C@H](C(=O)N1CCC[C@H]1C(=O)N[C@H](C(=O)N[C@@H](CC(=O)O)C(=O)N[C@H](C(=O)NCC(=O)N1CCC[C@H]1C(=O)N1Cc2[nH]c3ccccc3c2C[C@H]1C(=O)N[C@@H](C)C(=O)N[C@@H](Cc1ccccc1)C(N)=O)C(C)C)[C@@H](C)O)C(C)C)C(C)C)C(C)C)[C@@H](C)O)C(C)C

Square brackets hold non-standard residues; d marks the D form. Tpi = O=C(O)[C@@H]1Cc2c([nH]c3ccccc23)CN1; Oic = O=C(O)[C@@H]1C[C@@H]2CCCC[C@@H]2N1; hArg = N=C(N)NCCCC[C@H](N)C(=O)O; Cit = NC(=O)NCCC[C@H](N)C(=O)O; Aib = CC(C)(N)C(=O)O

In the first assay the target is T1, CGRP1 receptor (CRLR/RAMP1 complex) of human neuroblastoma SK-N-MC cells (human, UniProt Q16602 23-461; O60894 27-148). Kind of assay: cell-based or functional assay.
T1 sequence (Q16602 23-461, chain 1 of 2): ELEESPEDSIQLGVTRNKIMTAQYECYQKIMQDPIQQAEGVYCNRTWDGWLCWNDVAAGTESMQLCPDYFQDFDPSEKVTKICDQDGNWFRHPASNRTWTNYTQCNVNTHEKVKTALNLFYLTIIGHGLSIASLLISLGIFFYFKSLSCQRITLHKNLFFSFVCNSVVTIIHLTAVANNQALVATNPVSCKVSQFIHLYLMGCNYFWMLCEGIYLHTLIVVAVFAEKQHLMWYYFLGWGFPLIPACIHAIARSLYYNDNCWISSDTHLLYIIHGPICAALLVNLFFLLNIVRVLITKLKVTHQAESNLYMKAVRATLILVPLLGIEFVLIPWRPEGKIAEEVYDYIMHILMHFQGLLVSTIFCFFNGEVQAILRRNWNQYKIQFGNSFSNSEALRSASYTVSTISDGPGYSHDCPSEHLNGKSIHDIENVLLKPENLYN
T1 sequence (O60894 27-148, chain 2 of 2): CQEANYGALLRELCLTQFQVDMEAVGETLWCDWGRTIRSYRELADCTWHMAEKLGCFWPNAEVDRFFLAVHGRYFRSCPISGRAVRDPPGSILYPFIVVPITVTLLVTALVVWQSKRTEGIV
For Ac-WVTHRLAGLLSASGGVVRCNFVPTDVGPFAF-NH2 [SEQ ID NO 33], the “IC50” value amounted to 2.75 nM.

For B1, the “IC50” value came out at 6.2 nM.

As to Ac-WVTHRLAGLLSQSGGVVRCNFVPTDVGPFAF-NH2 [SEQ ID NO 35], half-maximal inhibition (IC50) required 0.37 nM.

With WVTHXLAGLLSRSGGVVRKNFVPTDVGPFAF (Ac-WVTH(hR)LAGLLSRSGGVVRKNFVPTDVGPFAF-NH2) [SEQ ID NO 21], half-maximal inhibition (IC50) required 0.44 nM.

As to WVTHRLAGLLSXSGGVVRKNFVPTDVGPFAF (Ac-WVTHRLAGLLS(hR)SGGVVRKNFVPTDVGPFAF-NH2) [SEQ ID NO 23], the “IC50” value turned out to be 0.57 nM.

Regarding WVTHXLAGLLSRSGGVVRKNFVPTDVGPFAF (Ac-WVTH(hR)LAGLLSRSGGVVRKNFVPTDVGPFAF-NH2; 20 k Da PEG, Amine linkage) [SEQ ID NO 22], the “IC50” value came out at 0.36 nM.

With WVTHRLAGLLSXSGGVVRKNFVPTDVGPFAF (Ac-WVTHRLAGLLS(Cit)SGGVVRKNFVPTDVGPFAF-NH2) [SEQ ID NO 29], it took 0.58 nM to reach half-maximal inhibition (IC50).

WVTHXLAGLLSRSGGVVRKNFVPTDVGPFAF (Ac-WVTH(Cit)LAGLLSRSGGVVRKNFVPTDVGPFAF-NH2) [SEQ ID NO 27]: the “IC50” value was found to be 0.57 nM.

Take WVTHXLAGLLSXSGGVVRKNFVPTDVGPFAF (Ac-WVTH(Cit)LAGLLS(Cit)SGGVVRKNFVPTDVGPFAF-NH2; 20 k Da PEG, Amine linkage) [SEQ ID NO 32]: the half-inhibitory concentration (IC50) turned out to be 3.74 nM.

Consider WVTHRLAGLLSXSGGVVRKNFVPTDVGPFAF (Ac-WVTHRLAGLLS(hR)SGGVVRKNFVPTDVGPFAF-NH2; 20 k Da PEG, Amine linkage) [SEQ ID NO 24], for which half-maximal inhibition (IC50) required 0.33 nM.

Consider WVTHXLAGLLSRSGGVVRKNFVPTDVGPFAF (Ac-WVTH(Cit)LAGLLSRSGGVVRKNFVPTDVGPFAF-NH2; 20 k Da PEG, Amine linkage) [SEQ ID NO 28], for which 2.08 nM corresponded to half-maximal inhibition (IC50).

With WVTHXLAGLLSXSGGVVRKNFVPTDVGPFAF (Ac-WVTH(hR)LAGLLS(hR)SGGVVRKNFVPTDVGPFAF-NH2; 20 k Da PEG, Amine linkage) [SEQ ID NO 26], the “IC50” value was determined as 0.37 nM.

Consider WVTHRLAGLLSXSGGVVRKNFVPTDVGPFAF (Ac-WVTHRLAGLLS(Cit)SGGVVRKNFVPTDVGPFAF-NH2; 20 k Da PEG, Amine linkage) [SEQ ID NO 30], for which the “IC50” value is 0.96 nM.

A further assay concerns the target T1, CGRP1 receptor (CRLR/RAMP1 complex) of …. Kind of assay: cell-based or functional assay. This is another data set of the same source.
On to B2, for which half-maximal inhibition (IC50) was put at 28.9 nM.

Turning to B3, it took 3.77 nM to reach half-maximal inhibition (IC50).

In the case of WVTHXLAGLLSXSGGVVXKNFVPTDVGXXAF (Ac-WVTH[Cit]LAGLLS[Cit]SGGVV[hArg]KNFVPTDVG[Pip][1-Nal]AF-NH2) [SEQ ID NO 675], the “IC50” value is 10.8 nM.

In the case of WVTHXLAGLLSXSGGVVXKNFVXTDVGPXAX (Ac-WVTH[Cit]LAGLLS[Cit]SGGVV[hArg]KNFV[Oic]TDVGP[1-Nal]A[2-Nal]-NH2) [SEQ ID NO 133], the “IC50” value came out at 2.73 nM.

On to WVTHXLAGLLSXSGGVVXKNFVXTDVGPXAF (Ac-WVTH[Cit]LAGLLS[Cit]SGGVV[hArg]KNFV[Oic]TDVGP[Bip]AF-NH2) [SEQ ID NO 134], for which the half-inhibitory concentration (IC50) came out at 3.85 nM.

With WVTHXLAGLLSXSGGVVXKNFVXTDVGXFAX (Ac-WVTH[Cit]LAGLLS[Cit]SGGVV[hArg]KNFV[Oic]TDVG[Oic]FA[2-Nal]-NH2) [SEQ ID NO 132], the half-inhibitory concentration (IC50) came out at 2.57 nM.

On to WVTHXLAGLLSXSGGVVXKNXVXTDVGPXAF (Ac-WVTH[Cit]LAGLLS[Cit]SGGVV[hArg]KN[pI-Phe]V[Oic]TDVGP[pI-Phe]AF-NH2) [SEQ ID NO 136], for which 2.34 nM corresponded to half-maximal inhibition (IC50).

B4: half-maximal inhibition (IC50) required 16.5 nM.

As to WVTHXLAGLLSXSGGVVXKNFVXTDVGPFAX (Ac-WVTH[Cit]LAGLLS[Cit]SGGVV[hArg]KNFV[Oic]TDVGPFA[2-Nal]-NH2) [SEQ ID NO 135], the “IC50” value worked out at 3.22 nM.

As for WVTHXLAGLLSXSGGVVXKNFVPTDVGXFAF (AC-WVTH[Cit]LAGLLS[Cit]SGGVV[hArg]KNFVPTDVG[Hyp]FAF-NH2) [SEQ ID NO 668], 6.01 nM corresponded to half-maximal inhibition (IC50).

As for WVTHXLAGLLSXSGGVVXKNFVPTDVGXFAF (AC-WVTH[Cit]LAGLLS[Cit]SGGVV[hArg]KNFVPTDVG[Pip]FAF-NH2) [SEQ ID NO 666], the “IC50” value turned out to be 11.2 nM.

Turning to WVTHXLAGLLSXSGGVVXKNFVPTDVGXFAF (Ac-WVTH[Cit]LAGLLS[Cit]SGGVV[hArg]KNFVPTDVG[Hyp]FAF-NH2) [SEQ ID NO 667], the half-inhibitory concentration (IC50) turned out to be 6.62 nM.

Take WVTHXLAGLLSXSGGVVXKNFVPTDVGPXAF (Ac-WVTH[Cit]LAGLLS[Cit]SGGVV[hArg]KNFVPTDVGP[Tic]AF-NH2) [SEQ ID NO 131]: the midpoint of inhibition, the IC50, lay at 89.9 nM.

B5: half-maximal inhibition (IC50) required 3 nM.

For the molecule Ac-[Cit]LAGLLS[Cit]SGGVV[hArg]KNFVPTDVG[Oic]FAF-NH2 [SEQ ID NO 661], 8.74 nM corresponded to half-maximal inhibition (IC50).

In the case of B6, the concentration for half-maximal inhibition (IC50) came out at 79.3 nM.

With Ac-WVTH[Cit]LAGLLS[Cit]SGGVV[hArg]KNFVPTDVG[Aib]FAF-NH2 [SEQ ID NO 670], half-maximal inhibition (IC50) required 4.37 nM.
